# Laboratory results from article PMC9352680, “A comprehensive thermodynamic model for RNA binding by the Saccharomyces cerevisiae Pumilio protein PUF4”.
# T1: PUF4 RNA-binding domain (Saccharomyces cerevisiae, UniProt P25339 537-888)
# T1 sequence: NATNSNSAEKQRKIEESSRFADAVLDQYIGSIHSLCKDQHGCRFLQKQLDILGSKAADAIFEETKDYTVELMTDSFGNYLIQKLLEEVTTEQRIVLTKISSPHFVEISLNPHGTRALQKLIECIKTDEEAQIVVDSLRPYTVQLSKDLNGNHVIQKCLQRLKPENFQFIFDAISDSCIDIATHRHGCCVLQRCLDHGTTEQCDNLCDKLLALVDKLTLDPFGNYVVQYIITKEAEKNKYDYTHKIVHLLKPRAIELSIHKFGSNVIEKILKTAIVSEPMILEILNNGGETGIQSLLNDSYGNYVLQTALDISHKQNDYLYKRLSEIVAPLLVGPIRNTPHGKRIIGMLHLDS
# Target: T1, PUF4 RNA-binding domain
# Experiment: Mg; RNA-MaP; 20 mM Na-HEPES pH 7.4, 30 mM KOAc, 0.75 mM MgCl2, 0.1% Tween-20, 5% glycerol, 0.1 mg/mL BSA, 2 mM DTT; 25 C; 0.0125-409.6 nM protein
# Settings: tags: N-His6-TEV cleaved; C-SNAP kept, Cy3B-labelled; label: tethered on chip by stalled RNA polymerase
row,Binder,Kd
1,UCUCUUUGUAUCGCUGUCUCUU (ssRNA) [Ic_S1_P5E.1_K5.1_C5.1_H5.1_A5.1_[T6C]_[A7G]_F5.1_[T8C]_[A10G]_T5.1],978 nM
2,UCUCUUUGUAGCCCAUUCUCUU (ssRNA) [Ic_S1_P5E.1_K5.1_C5.1_H5.1_A5.1_[T5G]_[T6C]_[A7C]_F5.1_[T8C]_[T9A]_[A10T]_T5.1],1530 nM
3,UCUCUUUGUAUGUAAAUCUCUU (ssRNA) [Ic_S1_P5E.1_K5.1_C5.1_H5.1_A5.1_[T6G]_[A7T]_F5.1_[T8A]_[T9A]_T5.1],92.9 nM
4,UCUCUUUGUACAAUGGUCUCUU (ssRNA) [Ic_S1_P5E.1_K5.1_C5.1_H5.1_A5.1_[T5C]_[T6A]_F5.1_[T9G]_[A10G]_T5.1],12.5 nM
5,UCUCUUUGUAUGGCUCUCUCUU (ssRNA) [Ic_S1_P5E.1_K5.1_C5.1_H5.1_A5.1_[T6G]_[A7G]_F5.1_[T8C]_[A10C]_T5.1],> 2300 nM
6,UCUCUUUGUAUAUAAUUCUCUU (ssRNA) [Ic_S1_P5E.1_K5.1_C5.1_H5.1_A5.1_[T6A]_[A7T]_F5.1_[T8A]_[T9A]_[A10T]_T5.1],4.21 nM
7,UCUCUUUGUAUUGCCUUCUCUU (ssRNA) [Ic_S1_P5E.1_K5.1_C5.1_H5.1_A5.1_[A7G]_F5.1_[T8C]_[T9C]_[A10T]_T5.1],652 nM
8,UCUCUUGGUAUUUAUCUCUU (ssRNA) [Ib_S1_P3E.1_K3.1_C3.1_H3.1_[T1G]_A3.1_[A6T]_F3.1_T3.1],> 2300 nM
9,UCUCUUUGUACCUCCCUCUCUU (ssRNA) [Ic_S1_P5E.1_K5.1_C5.1_H5.1_A5.1_[T5C]_[T6C]_[A7T]_F5.1_[T8C]_[T9C]_[A10C]_T5.1],414 nM
10,UCUCUUUGUACUCUCUUCUCUU (ssRNA) [Ic_S1_P5E.1_K5.1_C5.1_H5.1_A5.1_[T5C]_[A7C]_F5.1_[T9C]_[A10T]_T5.1],295 nM
11,UCUCUUUGUAACGUCUUCUCUU (ssRNA) [Ic_S1_P5E.1_K5.1_C5.1_H5.1_A5.1_[T5A]_[T6C]_[A7G]_F5.1_[T9C]_[A10T]_T5.1],2100 nM
12,UCUCUUUGUAUCCAGUUCUCUU (ssRNA) [Ic_S1_P5E.1_K5.1_C5.1_H5.1_A5.1_[T6C]_[A7C]_F5.1_[T8A]_[T9G]_[A10T]_T5.1],1040 nM
13,UCUCUUUGUAACUCAGUCUCUU (ssRNA) [Ic_S1_P5E.1_K5.1_C5.1_H5.1_A5.1_[T5A]_[T6C]_[A7T]_F5.1_[T8C]_[T9A]_[A10G]_T5.1],175 nM
14,UCUCUUUGUACGCCCAUCUCUU (ssRNA) [Ic_S1_P5E.1_K5.1_C5.1_H5.1_A5.1_[T5C]_[T6G]_[A7C]_F5.1_[T8C]_[T9C]_T5.1],564 nM
15,UCUCUUUGUACUCCCUUCUCUU (ssRNA) [Ic_S1_P5E.1_K5.1_C5.1_H5.1_A5.1_[T5C]_[A7C]_F5.1_[T8C]_[T9C]_[A10T]_T5.1],496 nM
16,UCUCUUUGUAUAUGAAUCUCUU (ssRNA) [Ic_S1_P5E.1_K5.1_C5.1_H5.1_A5.1_[T6A]_[A7T]_F5.1_[T8G]_[T9A]_T5.1],19.4 nM

row,Binder,Kd
1,UCUCUUUGUAGCUACGUCUCUU (ssRNA) [Ic_S1_P5E.1_K5.1_C5.1_H5.1_A5.1_[T5G]_[T6C]_[A7T]_F5.1_[T8A]_[T9C]_[A10G]_T5.1],> 2300 nM
2,UCUCUUUGUAUAUAUUUCUCUU (ssRNA) [Ic_S1_P5E.1_K5.1_C5.1_H5.1_A5.1_[T6A]_[A7T]_F5.1_[T8A]_[A10T]_T5.1],7.35 nM
3,UCUCUUUGUAUUUAAAUCUCUU (ssRNA) [Ic_S1_P5E.1_K5.1_C5.1_H5.1_A5.1_[A7T]_F5.1_[T8A]_[T9A]_T5.1],106 nM
4,UCUCUUUGUACCCCGGUCUCUU (ssRNA) [Ic_S1_P5E.1_K5.1_C5.1_H5.1_A5.1_[T5C]_[T6C]_[A7C]_F5.1_[T8C]_[T9G]_[A10G]_T5.1],> 2300 nM
5,UCUCUUUGUAAUGGUCUCUCUU (ssRNA) [Ic_S1_P5E.1_K5.1_C5.1_H5.1_A5.1_[T5A]_[A7G]_F5.1_[T8G]_[A10C]_T5.1],1800 nM
6,UCUCUUUGUAGUAAUUUCUCUU (ssRNA) [Ic_S1_P5E.1_K5.1_C5.1_H5.1_A5.1_[T5G]_F5.1_[T8A]_[A10T]_T5.1],1270 nM
7,UCUCUUAGUAUGUAUCUCUU (ssRNA) [Ib_S1_P3E.1_K3.1_C3.1_H3.1_[T1A]_A3.1_[A6G]_F3.1_T3.1],381 nM
8,UCUCUUUGUAUAGCAUUCUCUU (ssRNA) [Ic_S1_P5E.1_K5.1_C5.1_H5.1_A5.1_[T6A]_[A7G]_F5.1_[T8C]_[T9A]_[A10T]_T5.1],32.4 nM
9,UCUCUUUGUACGUCUGUCUCUU (ssRNA) [Ic_S1_P5E.1_K5.1_C5.1_H5.1_A5.1_[T5C]_[T6G]_[A7T]_F5.1_[T8C]_[A10G]_T5.1],697 nM
10,UCUCUUUGUAUGUCAUUCUCUU (ssRNA) [Ic_S1_P5E.1_K5.1_C5.1_H5.1_A5.1_[T6G]_[A7T]_F5.1_[T8C]_[T9A]_[A10T]_T5.1],297 nM
11,UCUCUUUGUAUCCAUUUCUCUU (ssRNA) [Ic_S1_P5E.1_K5.1_C5.1_H5.1_A5.1_[T6C]_[A7C]_F5.1_[T8A]_[A10T]_T5.1],119 nM
12,UCUCUUUGUAUCAGCCUCUCUU (ssRNA) [Ic_S1_P5E.1_K5.1_C5.1_H5.1_A5.1_[T6C]_F5.1_[T8G]_[T9C]_[A10C]_T5.1],918 nM
13,UCUCUUUGUAUACCGGUCUCUU (ssRNA) [Ic_S1_P5E.1_K5.1_C5.1_H5.1_A5.1_[T6A]_[A7C]_F5.1_[T8C]_[T9G]_[A10G]_T5.1],470 nM
14,UCUCUUAGUAUCUAUCUCUU (ssRNA) [Ib_S1_P3E.1_K3.1_C3.1_H3.1_[T1A]_A3.1_[A6C]_F3.1_T3.1],> 2300 nM
15,UCUCUUUGUACAAUAGUCUCUU (ssRNA) [Ic_S1_P5E.1_K5.1_C5.1_H5.1_A5.1_[T5C]_[T6A]_F5.1_[T9A]_[A10G]_T5.1],0.742 nM
